From publication PMC6821365 come the findings set out here.

Holding throughout (test): ITC
One data set deals with T1, yedK R85A (Escherichia coli (gene from BL21 …, UniProt P76318 2-222, R85A)).
T1 sequence: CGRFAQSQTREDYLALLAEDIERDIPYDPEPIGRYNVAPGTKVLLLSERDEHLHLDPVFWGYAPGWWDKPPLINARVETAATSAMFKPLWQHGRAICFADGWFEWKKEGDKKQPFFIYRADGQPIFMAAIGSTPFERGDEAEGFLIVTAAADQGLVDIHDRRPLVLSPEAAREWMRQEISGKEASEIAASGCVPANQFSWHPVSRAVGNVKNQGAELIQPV

For another data set, the target named is T2, yedK W67A (Escherichia coli (gene from BL21 …, UniProt P76318 2-222, W67A)).
T2 sequence: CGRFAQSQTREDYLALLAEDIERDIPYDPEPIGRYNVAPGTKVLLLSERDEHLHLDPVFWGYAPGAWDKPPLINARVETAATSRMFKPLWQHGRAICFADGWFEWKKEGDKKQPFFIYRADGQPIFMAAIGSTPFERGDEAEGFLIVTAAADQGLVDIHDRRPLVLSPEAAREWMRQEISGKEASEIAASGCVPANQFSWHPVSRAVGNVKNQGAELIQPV

For a further data set, the target named is T3, yedK WT (Escherichia coli (gene from BL21 …, UniProt P76318 2-222)).
T3 sequence: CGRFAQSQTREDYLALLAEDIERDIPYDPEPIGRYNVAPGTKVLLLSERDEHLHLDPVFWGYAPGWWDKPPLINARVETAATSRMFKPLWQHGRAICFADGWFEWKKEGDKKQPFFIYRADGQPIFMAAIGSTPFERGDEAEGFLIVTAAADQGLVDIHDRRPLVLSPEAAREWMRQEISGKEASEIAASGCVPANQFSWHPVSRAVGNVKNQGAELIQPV

Another data set has as its target T4, yedK C2A (Escherichia coli (gene from BL21 …, UniProt P76318 2-222, C2A)).
T4 sequence: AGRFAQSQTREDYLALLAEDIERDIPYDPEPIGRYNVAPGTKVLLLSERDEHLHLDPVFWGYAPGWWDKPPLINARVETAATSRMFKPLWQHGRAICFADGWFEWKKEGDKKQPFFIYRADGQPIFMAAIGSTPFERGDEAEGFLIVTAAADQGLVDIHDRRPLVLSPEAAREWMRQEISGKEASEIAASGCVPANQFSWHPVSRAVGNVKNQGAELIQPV

In another data set the target is T5, yedK H160A (Escherichia coli (gene from BL21 …, UniProt P76318 2-222, H160A)).
T5 sequence: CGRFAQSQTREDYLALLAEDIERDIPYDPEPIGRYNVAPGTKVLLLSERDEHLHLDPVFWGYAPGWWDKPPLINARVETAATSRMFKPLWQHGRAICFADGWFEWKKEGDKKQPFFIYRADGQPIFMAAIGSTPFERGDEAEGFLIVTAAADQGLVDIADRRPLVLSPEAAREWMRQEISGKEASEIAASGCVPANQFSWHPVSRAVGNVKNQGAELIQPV

In the next data set the target is T6, yedK N75A (Escherichia coli (gene from BL21 …, UniProt P76318 2-222, N75A)).
T6 sequence: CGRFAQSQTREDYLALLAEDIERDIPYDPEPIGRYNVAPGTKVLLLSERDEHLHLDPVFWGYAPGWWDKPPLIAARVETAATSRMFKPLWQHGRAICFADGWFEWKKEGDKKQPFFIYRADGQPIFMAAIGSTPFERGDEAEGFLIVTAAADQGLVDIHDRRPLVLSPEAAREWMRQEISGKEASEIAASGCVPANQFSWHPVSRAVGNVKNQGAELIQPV

In a further data set the target is T7, yedK T80A (Escherichia coli (gene from BL21 …, UniProt P76318 2-222, T80A)).
T7 sequence: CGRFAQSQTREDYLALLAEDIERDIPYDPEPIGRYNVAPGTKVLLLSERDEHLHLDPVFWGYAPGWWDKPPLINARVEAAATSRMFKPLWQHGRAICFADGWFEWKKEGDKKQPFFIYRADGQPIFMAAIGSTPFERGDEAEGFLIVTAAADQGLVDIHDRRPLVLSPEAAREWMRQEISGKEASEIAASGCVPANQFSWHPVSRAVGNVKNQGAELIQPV

For a further data set, the target named is T8, yedK T149A (Escherichia coli (gene from BL21 …, UniProt P76318 2-222, T149A)).
T8 sequence: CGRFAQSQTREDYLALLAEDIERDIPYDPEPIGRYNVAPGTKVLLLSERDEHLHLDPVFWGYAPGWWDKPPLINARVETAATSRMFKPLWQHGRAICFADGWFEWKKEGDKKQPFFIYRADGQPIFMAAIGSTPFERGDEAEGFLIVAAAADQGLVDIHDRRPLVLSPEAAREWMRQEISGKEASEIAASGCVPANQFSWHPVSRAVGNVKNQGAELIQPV

Broadly, the Kd is the concentration at which binding is half-saturated. Higher therefore signals lower affinity.

Turning to CGGTCGATTC (ssDNA) [ssDNA], the Kd with yedK R85A came to 16.9 µM; with yedK WT it was 2.2 µM; in the data set with yedK C2A, 7.9 µM; in the data set with yedK H160A, 1.4 µM; with yedK N75A, 37.9 µM; with yedK T80A it was 12.6 µM. Moreover, the binding result in the data set with yedK W67A and with yedK T149A was “no binding” in each case.
